Measurements taken from patent US20230279085A1 (ABL BIO, published 2023).

Key:
[1] = biological target: alpha-synuclein monomer (Homo sapiens, UniProt P37840 1-140); assay: SPR (BIAcore), antibody captured on Protein A, sample alpha-Syn monomer, 1:1 binding fit printed under a sensorgram that shows no binding (see non_binding)
Description: The quantitative analysis of the binding of alpha-synuclein antibody prepared in Example 1 to monomer and aggregate antigens was performed using BIAcore analysis.
(§1) The used instrument was T200 (GE Healthcare, S/N: 1565888). Protein A is used as a chip (GE Healthcare, Cat. 29-1275-56). 10 mM Glycine-HCl pH 1.5 (GE Healthcare, Cat. BR-1003-54) was regeneration buffer. The running buffer, analyte dilution, and the sample dilution buffer were HBS-EP. The α-syn antibodies (3A9, 9B11 and 11F11) prepared in Example 1 were diluted with 1×HBS-EP (GE Healthcare, Cat. BR-1006-69), and alpha-synuclein monomer (1 mg/ml) and fibril protein (3 mg/ml) were serially diluted in duplicate and analyzed at 6 concentrations (0, 0.39, 1.56, 6.25, 25, 100 nM) including 0 nM in total. For the capture, the monomer was for RU of 800 (theoretical), and a fibril was for RU of 100 (theoretical). The capture phase was performed at contact time of 60 seconds, a flow rate of 30 μl/min, and a stabilization period of 180 seconds. The association phase was performed at the association time of 120 seconds and the flow rate was 30 μl/min. The dissociation phase was performed at the dissociation time of 360 seconds and the flow rate of 30 μl/min. The regeneration phase was performed twice time at the regeneration time of 240 seconds (primary) and 60 seconds (secondary) and a flow rate of 30 μl/min. […]

[2] = biological target: alpha-synuclein aggregate (fibril) (Homo sapiens, UniProt P37840 1-140); assay: SPR (BIAcore), Protein A capture, file ProteinA-Fibril-main-5th, sample aSyn180330, 1:1 binding fit, 25 °C
Description: as §1, with “μl/min.” for “μl/min. The regeneration phase was performed twice time at the regeneration time of 240 seconds (primary) and 60 seconds (secondary) and a flow rate of 30 μl/min.”
The BIAcore analysis was performed to quantitatively analyze the binding affinity of the chimeric antibodies (Ch11F11) obtained in Example 8, and the humanized antibodies (Hu11F11) obtained in Example 9, according to the substantially same method of Example 2-3. […]

B1: Ch11F11 chimeric antibody (antibody, human IgG1, V domains shown)
VH: EVQLQESGGGLVQPGGSLRLSCATSGFTFSDFYMEWVRQPPGKRLEWIAASRNKANDYTTEYSASVKGRFIVSRDTSQSILYLQMNALRAEDTAIYYCARDAHGKPFAYWGQGTLVTVSA
VL: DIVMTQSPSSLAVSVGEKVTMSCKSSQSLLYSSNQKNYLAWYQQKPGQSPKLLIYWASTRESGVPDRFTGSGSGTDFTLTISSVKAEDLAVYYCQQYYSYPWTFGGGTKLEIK
notes: Chimeric human IgG1; also called chimeric 11F11; Ch11F11(-RD)
A koff [1] of 2.65e-06 s⁻¹ and a kon [1] of 2.07e+06 M⁻¹ s⁻¹ were found for B1 in this work.

B2: hu11F11(ver.3) (antibody, IgG1, V domains shown)
VH: EVQLVESGGGLVQPGGSLRLSCATSGFTFSDFYMEWVRQPPGKRLEWIAASRNKANDYTTEYSASVKGRFTISRDTSKSSLYLQMNSLRAEDTAIYYCARDAHGKPFAYWGQGTTVTVSS
VL: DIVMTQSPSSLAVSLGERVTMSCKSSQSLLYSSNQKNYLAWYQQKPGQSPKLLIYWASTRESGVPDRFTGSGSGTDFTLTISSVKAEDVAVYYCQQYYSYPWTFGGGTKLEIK
notes: Humanized IgG1; also called Hu11F1_ver3; Hu11F11_v3
A koff [2] of 0.000266 s⁻¹ was found for B2 in this work.
